Experimental data taken from IntAct's records for PubMed 23736261.

B1: Catenin beta-1 (Homo sapiens), P35222 (parent)
chain: MATQADLMELDMAMEPDRKAAVSHWQQQSYLDSGIHSGATTTAPSLSGKGNPEEEDVDTSQVLYEWEQGFSQSFTQEQVADIDGQYAMTRAQRVRAAMFPETLDEGMQIPSTQFDAAHPTNVQRLAEPSQMLKHAVVNLINYQDDAELATRAIPELTKLLNDEDQVVVNKAAVMVHQLSKKEASRHAIMRSPQMVSAIVRTMQNTNDVETARCTAGTLHNLSHHREGLLAIFKSGGIPALVKMLGSPVDSVLFYAITTLHNLLLHQEGAKMAVRLAGGLQKMVALLNKTNVKFLAITTDCLQILAYGNQESKLIILASGGPQALVNIMRTYTYEKLLWTTSRVLKVLSVCSSNKPAIVEAGGMQALGLHLTDPSQRLVQNCLWTLRNLSDAATKQEGMEGLLGTLVQLLGSDDINVVTCAAGILSNLTCNNYKNKMMVCQVGGIEALVRTVLRAGDREDITEPAICALRHLTSRHQEAEMAQNAVRLHYGLPVVVKLLHPPSHWPLIKATVGLIRNLALCPANHAPLREQGAIPRLVQLLVRAHQDTQRRTSMGGTQQQFVEGVRMEEIVEGCTGALHILARDVHNRIVIRGLNTIPLFVQLLYSPIENIQRVAAGVLCELAQDKEAAEAIEAEGATAPLTELLHSRNEGVATYAAAVLFRMSEDKPQDYKKRLSVELTSSLFRTEPMAWNETADLGLDIGAQGEPLGYRQDDPSYRSFHSGGYGQDALGMDPMMEHEMGGHHPGADYPVDGLPDLGHAQDLMDGLPPGDSNQLAWFDTDL

Variants of: B1
Settings: with mlp3b_human MAP1LC3B

Q: With W504A;I507A as the variant, how does the “effect of a mutation on the interaction” value read?
A: disrupting interaction

Variants of: B1
Settings: with mlp3b_human MAP1LC3B
Remark: another data set of the same source

Q: For W504A;I507A, which “effect of a mutation on the interaction” value is on record?
A: decreasing interaction
